The text below walks through data of paper PMC11001878, “Engineering an artificial catch bond using mechanical anisotropy” (Nature Communications, 2024).

Assay [1] has as its target ybbr-ELP-FLN-DocG (Ruminococcus champanellensis). Put plainly: AFM single-molecule force spectroscopy; constant pulling speed (100, 400, 800, 3200 nm/s); both partners tethered through ybbr tags, CohE on the cantilever and DocG on the glass; dwell 200 ms; TBS Ca buffer (25 mM Tris, 72 mM NaCl, 1 mM CaCl2, pH 7.2); zero-force off rate k0 from a Bell-Evans fit, one for each unbinding pathway.

The target in assay [2] is DocG-FLN-ELP-ybbr (Ruminococcus champanellensis). The description is as above.
Assay [3] addresses T1, DocG A77C mutant protein labeled with Cy3b (Ruminococcus champanellensis, A77C, Cy3b (maleimide-conjugated) on the cysteine at 77).
T1 chain: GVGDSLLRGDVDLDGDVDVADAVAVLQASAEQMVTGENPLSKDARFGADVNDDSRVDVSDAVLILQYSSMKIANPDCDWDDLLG
As to the kind of experiment: MST; 20 nM Cy3b-labelled DocG A77C mixed with a series of CohE, 16 samples, 0.0763 nM to 2.5 µM; Nanotemper Monolith NT.115. The note with it: both partners purified.

For orientation: Kd means the equilibrium constant for the complex coming apart.

Take ybbr-ELP-FLN-CohE (domain or fragment): in assay [1], the log(k0), single pathway is -4.2. Regarding CohE-FLN-ELP-ybbr (domain or fragment), the log(k0), high force pathway in assay [1] and in assay [2] was -7 throughout. In addition, the log(k0), low force pathway in assay [1] is -9; in assay [2], -31.

B1: CohE wild-type (domain or fragment)
chain: LSMDQKFAEPGETVEIALNLENFDASWTGLEFLVNYDPKLEVALDGAGDIDYSYGDAIGAMGKKISVGGAISKDLTADGLKGFAFAWGTATAISGNGQLGVFKFTVPADAQPGDEFPVNLTVNVGSFIDANKENIPFETVNGWIKI
In assay [3], B1 returned a dissociation constant Kd of 14 ± 4 nM.

B2: CohE F13AzF-Fgβ (domain or fragment)
chain 1: LSMDQKFAEPGETVEIALNLENFDASWTGLEFLVNYDPKLEVALDGAGDIDYSYGDAIGAMGKKISVGGAISKDLTADGLKGFAFAWGTATAISGNGQLGVFKFTVPADAQPGDEFPVNLTVNVGSFIDANKENIPFETVNGWIKI
chain 2: NEEGFFSARGHRPLDGSWSHPQFEKGSGSC
modifications: azido-phenylalanine (AzF) at 13, covalently conjugated by the azide-DBCO click reaction with the Fgβ-StrepTag-DBCO peptide | C-terminal cysteine bearing DBCO, linked to the azide of AzF13 of the CohE chain
In turn, B2 had a dissociation constant Kd in assay [3] of 40 ± 8 nM.

B3: CohE K87AzF-Fgβ (domain or fragment)
chain 1: LSMDQKFAEPGETVEIALNLENFDASWTGLEFLVNYDPKLEVALDGAGDIDYSYGDAIGAMGKKISVGGAISKDLTADGLKGFAFAWGTATAISGNGQLGVFKFTVPADAQPGDEFPVNLTVNVGSFIDANKENIPFETVNGWIKI
chain 2: NEEGFFSARGHRPLDGSWSHPQFEKGSGSC
modifications: azido-phenylalanine (AzF) at 87, covalently conjugated by the azide-DBCO click reaction with the Fgβ-StrepTag-DBCO peptide | C-terminal cysteine bearing DBCO, linked to the azide of AzF87 of the CohE chain
As to B3, the affinity in assay [3], expressed as Kd, was 19 ± 10 nM.
